How the values were obtained:
Experiment in all cases: cell-based or functional assay
[1] = molecular target: HIV-1 Env of isolate 98CN009 (subtype CRF07_BC) (HIV-1)
[2] = molecular target: HIV-1 Env of pseudovirus isolate MGRM-G-019 (subtype G) (HIV-1)
[3] = molecular target: HIV-1 Env of isolate MGRM-F1-015 (subtype F) (HIV-1)
[4] = molecular target: HIV-1 Env of pseudovirus isolate MGRM-G-001 (subtype G) (HIV-1)
[5] = molecular target: HIV-1 Env of isolate 92UG114 (subtype D) (HIV-1)
[6] = molecular target: HIV-1 Env of pseudovirus isolate MGRM-G-016 (subtype G) (HIV-1)
[7] = molecular target: HIV-1 Env of isolate MGRM-D-003 (subtype D) (HIV-1)
[8] = molecular target: HIV-1 Env of isolate MGRM-D-016 (subtype D) (HIV-1)
[9] = molecular target: HIV-1 Env of isolate MGRM-D-029 (subtype D) (HIV-1)
[10] = molecular target: HIV-1 Env of isolate 98CN006 (subtype CRF08_BC) (HIV-1)
[11] = molecular target: HIV-1 Env of isolate MGRM-D-021 (subtype D) (HIV-1)
[12] = molecular target: HIV-1 Env of isolate MGRM-F1-010 (subtype F) (HIV-1)
[13] = molecular target: HIV-1 Env of isolate 92UG024 (subtype D) (HIV-1)
[14] = molecular target: HIV-1 Env of isolate 92UG001 (subtype D) (HIV-1)
[15] = molecular target: HIV-1 Env of pseudovirus isolate MGRM-G-017 (subtype G) (HIV-1)
[16] = molecular target: HIV-1 Env of isolate MGRM-F1-018 (subtype F) (HIV-1)
[17] = molecular target: HIV-1 Env of isolate MGRM-F1-017 (subtype F) (HIV-1)
[18] = molecular target: HIV-1 Env of isolate MGRM-D-012 (subtype D) (HIV-1)
[19] = molecular target: HIV-1 Env of isolate MGRM-D-020 (subtype D) (HIV-1)
[20] = molecular target: HIV-1 Env of isolate MGRM-F1-012 (subtype F) (HIV-1)
[21] = molecular target: HIV-1 Env of isolate MGRM-D-019 (subtype D) (HIV-1)
[22] = molecular target: HIV-1 Env of isolate MGRM-D-004 (subtype D) (HIV-1)
[23] = molecular target: HIV-1 Env of isolate MGRM-F1-008 (subtype F) (HIV-1)
[24] = molecular target: HIV-1 Env of isolate MGRM-D-018 (subtype D) (HIV-1)
[25] = molecular target: HIV-1 Env of isolate MGRM-F1-023 (subtype F) (HIV-1)
[26] = molecular target: HIV-1 Env of pseudovirus isolate MGRM-G-015 (subtype G) (HIV-1)
[27] = molecular target: HIV-1 Env of isolate MGRM-F1-004 (subtype F) (HIV-1)
[28] = molecular target: HIV-1 Env of isolate MGRM-D-024 (subtype D) (HIV-1)
[29] = molecular target: HIV-1 Env of isolate MGRM-D-002 (subtype D) (HIV-1)
[30] = molecular target: HIV-1 Env of isolate MGRM-F1-021 (subtype F) (HIV-1)
[31] = molecular target: HIV-1 Env of isolate MGRM-D-026 (subtype D) (HIV-1)
[32] = molecular target: HIV-1 Env of isolate MGRM-F1-006 (subtype F) (HIV-1)
[33] = molecular target: HIV-1 Env of isolate MGRM-D-014 (subtype D) (HIV-1)
[34] = molecular target: HIV-1 Env of isolate MGRM-F1-020 (subtype F) (HIV-1)
[35] = molecular target: HIV-1 Env of isolate 92UG005 (subtype D) (HIV-1)
[36] = molecular target: HIV-1 Env of isolate MGRM-F1-022 (subtype F) (HIV-1)
[37] = molecular target: HIV-1 Env of isolate MGRM-D-008 (subtype D) (HIV-1)
[38] = molecular target: HIV-1 Env of pseudovirus isolate MGRM-G-014 (subtype G) (HIV-1)
[39] = molecular target: HIV-1 Env of pseudovirus isolate MGRM-G-009 (subtype G) (HIV-1)
[40] = molecular target: HIV-1 Env of isolate MGRM-F1-014 (subtype F) (HIV-1)
[41] = molecular target: HIV-1 Env of pseudovirus isolate MGRM-G-024 (subtype G) (HIV-1)
[42] = molecular target: HIV-1 Env of isolate MGRM-F1-013 (subtype F) (HIV-1)
[43] = molecular target: HIV-1 Env of isolate MGRM-D-001 (subtype D) (HIV-1)
[44] = molecular target: HIV-1 Env of pseudovirus isolate MGRM-G-006 (subtype G) (HIV-1)
[45] = molecular target: HIV-1 Env of isolate MGRM-D-011 (subtype D) (HIV-1)
[46] = molecular target: HIV-1 Env of pseudovirus isolate MGRM-G-013 (subtype G) (HIV-1)
[47] = molecular target: HIV-1 Env of isolate MGRM-D-028 (subtype D) (HIV-1)
[48] = molecular target: HIV-1 Env of isolate 92UG046 (subtype D) (HIV-1)
[49] = molecular target: HIV-1 Env of pseudovirus isolate MGRM-G-004 (subtype G) (HIV-1)
[50] = molecular target: HIV-1 Env of pseudovirus isolate MGRM-G-025 (subtype G) (HIV-1)
[51] = molecular target: HIV-1 Env of pseudovirus isolate MGRM-G-011 (subtype G) (HIV-1)
[52] = molecular target: HIV-1 Env of isolate MGRM-D-013 (subtype D) (HIV-1)
[53] = molecular target: envelope of aMLV pseudovirus (negative control)
[54] = molecular target: HIV-1 Env of isolate MGRM-F1-016 (subtype F) (HIV-1)
[55] = molecular target: HIV-1 Env of pseudovirus isolate MGRM-G-028 (subtype G) (HIV-1)
[56] = molecular target: HIV-1 Env of isolate MGRM-D-005 (subtype D) (HIV-1)
[57] = molecular target: HIV-1 Env of pseudovirus isolate MGRM-G-027 (subtype G) (HIV-1)
[58] = molecular target: HIV-1 Env of isolate MGRM-D-022 (subtype D) (HIV-1)

Sequence of PGT-142 (antibody) (VH): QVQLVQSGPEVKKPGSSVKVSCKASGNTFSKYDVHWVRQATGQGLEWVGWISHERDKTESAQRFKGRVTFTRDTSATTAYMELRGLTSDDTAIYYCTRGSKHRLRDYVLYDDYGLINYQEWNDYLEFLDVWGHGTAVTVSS
Sequence of PGT-142 (antibody) (VL): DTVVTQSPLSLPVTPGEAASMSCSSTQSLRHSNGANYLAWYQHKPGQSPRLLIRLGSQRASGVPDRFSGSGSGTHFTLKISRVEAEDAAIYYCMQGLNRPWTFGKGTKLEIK
Sequence of PGT-141 (antibody) (VH): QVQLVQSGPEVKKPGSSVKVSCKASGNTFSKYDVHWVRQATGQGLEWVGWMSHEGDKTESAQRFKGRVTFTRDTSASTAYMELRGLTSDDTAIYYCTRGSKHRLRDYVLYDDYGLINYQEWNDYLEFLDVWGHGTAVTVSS
Sequence of PGT-141 (antibody) (VL): as the sequence (VL) above

Work on PGT-121 (antibody) yielded an IC50 (neutralization) [1] of 0.009 µg/mL, an IC50 [2] of 0.011 µg/mL and an IC50 (neutralization) [3] of 28.4 µg/mL. The IC50 [4] was 0.004 µg/mL, the IC50 (neutralization) [5] was 0.004 µg/mL and the IC50 [6] was over 50 µg/mL. It also gave an IC50 (neutralization) [7] of 10.7 µg/mL, an IC50 (neutralization) [8] of over 50 µg/mL and an IC50 (neutralization) [9] of over 50 µg/mL. It also gave an IC50 (neutralization) [10] of 0.01 µg/mL, an IC50 (neutralization) [11] of 5.33 µg/mL and an IC50 (neutralization) [12] of 0.016 µg/mL. It also gave an IC50 (neutralization) [13] of over 50 µg/mL, an IC50 (neutralization) [14] of over 50 µg/mL and an IC50 [15] of 0.004 µg/mL. For the same substance, the IC50 (neutralization) [16] was 0.04 µg/mL, the IC50 (neutralization) [17] was 16.9 µg/mL and the IC50 (neutralization) [18] was over 50 µg/mL. It also gave an IC50 (neutralization) [19] of 0.01 µg/mL, an IC50 (neutralization) [20] of 1.91 µg/mL and an IC50 (neutralization) [21] of over 50 µg/mL. The IC50 (neutralization) [22] was over 50 µg/mL, the IC50 (neutralization) [23] was over 50 µg/mL and the IC50 (neutralization) [24] was 0.005 µg/mL. For the same substance, the IC50 (neutralization) [25] was 0.097 µg/mL, the IC50 [26] was over 50 µg/mL and the IC50 (neutralization) [27] was 1.67 µg/mL. The IC50 (neutralization) [28] was 0.038 µg/mL, the IC50 (neutralization) [29] was 0.006 µg/mL and the IC50 (neutralization) [30] was 0.099 µg/mL. It also gave an IC50 (neutralization) [31] of over 50 µg/mL, an IC50 (neutralization) [32] of 5.33 µg/mL and an IC50 (neutralization) [33] of 0.009 µg/mL. The IC50 (neutralization) [34] was 0.167 µg/mL, the IC50 (neutralization) [35] was 18.3 µg/mL and the IC50 (neutralization) [36] was 0.104 µg/mL. The IC50 (neutralization) [37] was over 50 µg/mL, the IC50 [38] was 0.009 µg/mL and the IC50 [39] was 0.02 µg/mL. The IC50 (neutralization) [40] was 0.082 µg/mL, the IC50 [41] was 0.014 µg/mL and the IC50 (neutralization) [42] was 0.083 µg/mL. For the same substance, the IC50 (neutralization) [43] was 0.615 µg/mL, the IC50 [44] was over 50 µg/mL and the IC50 (neutralization) [45] was 0.018 µg/mL. For the same substance, the IC50 [46] was 3.99 µg/mL, the IC50 (neutralization) [47] was 0.009 µg/mL and the IC50 (neutralization) [48] was over 50 µg/mL. For the same substance, the IC50 [49] was 0.115 µg/mL, the IC50 [50] was 0.063 µg/mL and the IC50 [51] was 3.17 µg/mL. For the same substance, the IC50 (neutralization) [52] was over 50 µg/mL, the IC50 [53] was over 50 µg/mL and the IC50 (neutralization) [54] was 0.931 µg/mL. The IC50 [55] was 0.014 µg/mL, the IC50 (neutralization) [56] was over 50 µg/mL and the IC50 [57] was 0.124 µg/mL. The IC50 (neutralization) [58] was over 50 µg/mL.

Substance PGT-141 (antibody) has an IC50 (neutralization) [1] of 1.28 µg/mL, an IC50 [2] of 20.3 µg/mL and an IC50 [4] of 0.392 µg/mL. The IC50 [6] was 4.69 µg/mL, the IC50 (neutralization) [10] was over 50 µg/mL and the IC50 (neutralization) [13] was over 50 µg/mL. The IC50 (neutralization) [14] was over 50 µg/mL, the IC50 [15] was 0.164 µg/mL and the IC50 [26] was over 50 µg/mL. It also gave an IC50 (neutralization) [35] of over 50 µg/mL, an IC50 [38] of 0.222 µg/mL and an IC50 [39] of 1.89 µg/mL. The IC50 [41] was 0.051 µg/mL, the IC50 [44] was 0.043 µg/mL and the IC50 [46] was over 50 µg/mL. The IC50 (neutralization) [48] was over 50 µg/mL, the IC50 [49] was over 50 µg/mL and the IC50 [50] was over 50 µg/mL. For the same substance, the IC50 [51] was 0.086 µg/mL, the IC50 [53] was over 50 µg/mL and the IC50 [55] was 24.9 µg/mL. The IC50 [57] was over 50 µg/mL.

In the case of PGT-142 (antibody), the IC50 (neutralization) [1] is reported as 4 µg/mL, the IC50 [2] is reported as 5.95 µg/mL and the IC50 [4] is reported as 0.362 µg/mL. It also gave an IC50 [6] of 8.17 µg/mL, an IC50 (neutralization) [10] of over 50 µg/mL and an IC50 (neutralization) [13] of over 50 µg/mL. For the same substance, the IC50 (neutralization) [14] was over 50 µg/mL, the IC50 [15] was 0.125 µg/mL and the IC50 [26] was over 50 µg/mL. For the same substance, the IC50 (neutralization) [35] was over 50 µg/mL, the IC50 [38] was 0.076 µg/mL and the IC50 [39] was 2.81 µg/mL. It also gave an IC50 [41] of 0.054 µg/mL, an IC50 [44] of 0.019 µg/mL and an IC50 [46] of over 50 µg/mL. The IC50 (neutralization) [48] was over 50 µg/mL, the IC50 [49] was over 50 µg/mL and the IC50 [50] was over 50 µg/mL. It also gave an IC50 [51] of 0.046 µg/mL, an IC50 [53] of over 50 µg/mL and an IC50 [55] of 30.3 µg/mL. For the same substance, the IC50 [57] was over 50 µg/mL.
